This is an account of results in the DeepSol protein solubility set.

The data set can be described thus: soluble on expression in E. coli; label from the status in PepcDB or PDB records.
“MSVLGFDIGNLNCYIGVARQGGIEVITNDYSLHATPACVSFGPKDRSMGVAARQAVTTNIKNTVINFKHLIGRKFSDPVAQRFIPFIPCKVVKLPNDDIGVQVSYLGEPHTFTPEQVLAALLTKLRTIVESQLSDVKKVSDCVLAVPSYFTDVQRRAVLSAIQYAGLNSLRIVNETTAIALAYGIYKQDLPEEDAKSRNVVFLDIGHSSTQASLVAFNRGKLQMVNTSYDLESGGIWFDALIREHFRKEFKTKYGIDAATSPRPWLRLLDECERVKKQMSANQTPIPLNIECFMEDKDVTGKMQRQEFEDLAAPIFNRIKQVLINLFADGVSIKPEEIDEIEIVGGSSRIPMIREIVKDLFGKEPKTTMNQDEAVARGAAMQCAILSPTFRVREFAIKDTQPYRIRLSWNSTGENGGENDVFSPRDEVPFSKLVSLLRSGPFNVEAHYAQPNVVPHNQVHIGSWKVNGARPGADGGNQKVKVKVRVNPDGIFTIASATMYEPRIVEEVPAEAMEVDGDAKTEAPAEPLEPVKKTKLVPVDLEVIESIPVSYDVQKFHNLELQMQESDAREKAKADAKNSLEEYVYEMRDKVSDQYAEFITPAAADEFRSVLTSTEDWLYDEGEDAERDVYEKRLSELKAVGTPVVERYRESETRKPAFDSFDQSIMRVRKAYEDYANGGPTYAHLDSKEMEKVINAIEDKKKWLDEARHKQETRSKTDAPVVFTEEILQNKNVFENVVNPILNKKKPAAPAPPKKEEPQPAAGDQPQSQPGEMDVD”: the “soluble on expression in E. coli” value is recorded as “not soluble”.
Take “MSLSYLLALDAGTGSIRAVIFDLNGRQLAVGQAEWKHLSVDNVPGSMEFDLTTNWQLACQCIRQALDAARLSAADIQSVACCSMREGIVLYDRNGEAIWACANVDARASREVAELKEIHDFRFESEVYEVSGQTLALSAMPRLLWLAHHRPDIYRKAATITMISDWLAAKLSGELAVDPSNAGTTGMLDLFSRDWRPALLDMAGLRADMLSPVKETGTLLGAVTEAAAQQSGLRAGTPVVMGGGDVQLGCLGLGVVRAGQTAVLGGTFWQQVVNLPQVRTDPQMNIRVNPHVIPGMAQAESISFFTGLTMRWFRDAFCAEEKLIAERLGVDAYSLLEEMASRVPAGSHGVMPIFSDAMHFKQWYHAAPSFINLSIDPEKCNKATLFRALEENAAIVSACNLAQISQFSGVTFESLVFAGGGSKGALWSQILSDVTGLPVRVPVVREATALGCAIAAGTGAGLYDDMASTGERLVSWHREFTPNPQHRELYQEMMSKWQTVYADQLGLVDSGLTTSMWQAPGLERRQRVASSPSEGHHHHHH”: the “soluble on expression in E. coli” value is recorded as “soluble”.
For the sequence “MCAKIALLLVLVGAASAAVLPDKFYGTFDLDHSENFDEYLTAKGYGWFTRKLVTFATFKKVFTKTSNKNLFDYSNLTSKKDVHYKNVQLGKAFQGEGLDSTKHEITFTLKDGHLFEHHKPLEGGDAKEETYEYLFDKEFLLVRMSFNGVEGRRFYKRLP”, the “soluble on expression in E. coli” value is “not soluble”.
Turning to “MGSDKIHHHHHHMTKIGEKRYIFYLTNTKIDQSIMLSELKTFIAVSQYGTFSGAGARIGLTQSAVSAQMQRLEEELGFALFDRTGRSATLNDAGRETLALAEEMMTLYARLSERGAVAAESGMLRVGAIASAQVSFLADALARFRDDRPGWRIRVVPGVSLGLLGQVDSGELDLAVIIKPPFALPSELEWRTLVTEPFVLLVPKALVRGKGNARSWRELLRSEPFIRYDRTSFGGRLVDRFLRRSRLNVHDVIELDELQGIVQLVARGIGVALIPDSAGLGKWPAGVAALELGEATFQREIGLVQRPRHSRQAVAGVLADCIGTAAGV”, the “soluble on expression in E. coli” value is recorded as “not soluble”.
The entry for “MGSDKIHHHHHHYGAQAYGMGGGGGGYNRPMNSYGNGYNNGGGFNNYGNGGGFGGNNYNNGPPPFDGGYNRPYGGGGGGGYGRPQGYVPPPPPPPTQPEPEPEPRPEPQPEPQPEPQPEPQPEPQPEPHPEPAPEPIVKPYNSYAQPHNSYVRYGGK” is “not soluble”.
For the sequence “MSRIHTLTMPKWGLSMTEGRVDAWLKEEGAHIEKGDEVLDVETDKISSSVEAPFSGVLRRKVAREDETLAVGALLGVVVEGEASDEEIDALVQRFQAEFVPADEDAGDSGPAPRKVELDGRLLRYFDRGEGDPALLLIHGFGGDLNNWLFNHEALAAERRVIALDLPGHGESGKALVRGDLDELSGSVLALLDHLDLEQVHLAGHSMGGAVALNCARLAPQRVLSLSLIGSAGLGEEINGDYLRGFVEAANRNALKPQLVQLFSDPALVTRQMLEDMLRYKRLEGVDAALRQLLDNLFADGRQRNDLRAVANEGRQPVLAIWGSDDAIIPARHAEGLPAQVEIIPGQAHMVQMEAAEQVNRLLLDFLRQH”, the “soluble on expression in E. coli” value is recorded as “not soluble”.
The entry for “MTKGSPGDTPDKASDRAARGASDASDASDAWRRWHEQRVATVSAPYGPLALTGTHWLEDHPDGQLPDIPGRWTTDGDAVLLTAGRADGLTVDGRLLDGEARLTADRGPVGAARVARGERRLVVLVREGLWGVRDFDPAAPARRAFRGIAATPYDPRWSVPGRFTPYDTGRRSVRVPNADGRERGLALGGELAFELDGRAHTLQVGVEDDGSLWAVFADATSGSTSYRFRFLRPAAPDAEGRTTVDLNRALLPPCAFADHFVCPFPPPGNTLGARVEAGERELRLEHHHHHH” is “soluble”; for “MSLSHSIKPWHEACSKLARTSKPEAFNVDTLFAQLADDTNDTFYTVDPRWITQNAQQFSGCFPGTVLYAMKANPLVHVLEALSQGGINHFDVASLAEVQTVHNTLPNAVQYLMNPVKSRHCLHEAYYRHGVRSFVLDSEEELSKLRDVLPERDSTISMFVRYAPSESTAVYDLRGKFGASPALATQLVHQVAASTDWSLGLSFHVGSQAIEDGPWLAALDDADAIVRDTAQHVRHLDIGGGFPGNYLNSMGNTPDLVGRVCEHIQTSPTLKDLNLICEAGRGLVYGGMSLFARVLSRREHSVFCGAGIFGGLLSAQQWLQFPARVWRDAAPYAGSAEATFNIFGPTCDSMDRLAFPYSLASDIREGDWLEFQSTGAYSVSLRTPFNGFYADRIISLPSEGHHHHHH” it is “soluble”.
As to “MKPHALIGLLAGMLLSSSLYAADSTKPLPLHIGGRVLVESPANQPVSYTYSWPAVYFETAFKGQSLTLKFDDDQNIFRLIVDDKAPVVINKPGKVDYPVESLAPGKHRVRLEKLTETQSTSGRFLGFYTDPSAKPLALPKRKRQIEFIGDSFTVGYGNTSPSRECTDEELFKTTNSQMAFGPLTAKAFDADYQINASSGFGIVRNYNGTSPDKSLLSLYPYTLNNPDQLYHNKHWKPQVIVIGLGTNDFSTALNDNERWKTREALHADYVANYVKFVKQLHSNNARAQFILMNSDQSNGEIAEQVGKVVAQLKGGGLHQVEQIVFKGLDYSGCHWHPSANDDQLLANLLITHLQQKKGIWLEHHHH”, the “soluble on expression in E. coli” value was “soluble”.
With “MGHHHHHHSHANSIDLIGYVHQPVQFDSTLDGKFWAGTVISHEPSSDSKSESDSSSNFWIPVLFEGDLAHTANSYLKKNDRVHITGQILGDVIQSGANSDQAHVQLFKSFHGSFSHQVMVRD”, the “soluble on expression in E. coli” value is listed as “not soluble”.
For “LLYIDNIPLVEYNNIIQVEYVVINMLKHGILGLLNYGDMTGYEIMKVFRDSLSFFWTANTSQIYRELNTLKKDGFVTDIVVKQTGKPDKKVFSITESGREELKRWLREYDYGNRNSPLCMKVFFSGELPKEENIERLREIKNEAQQAIERYSSVFETMKIYKGMVARPEDSVYWNMTVEYGIRYMKMLSEWCDCCIKILEDVEK”, the “soluble on expression in E. coli” value was “soluble”.
In the case of “SLTVFQPLVPPDWKMNLREGSLYAQVAFSAAAGQGFEAGGHGVLKGGSAWMPDNQINGVDFVLPFRFSDGHWQLGIRRPVSLRIGEIVNQVTARNLTADLQGTWPWSEANPLQLSDVSVDLLGGKLTLLQLRMPQRDPALIRLQHISSSELTSAVKVKQFAMSGAVSGALPLWLENNQWIIHDGWLRNDGPMTLRLDKDTADALVADNVSAGAAINWLRYMEISRSWTQINLDNLGVLTLKASINGTSRVEGKSSTVHLNYAHEENIFDLWRSLRFGDNLQAWLEQNATL”, the “soluble on expression in E. coli” value was “not soluble”.
Turning to “MAAQESLHVKTPLRDSMALSKVAGTSVFLKMDSSQPSGSFKIRGIGHLCKMKAKQGCKHFVCSSAGNAGMATAYAARRLGLPATIVVPSTTPALTIERLKNEGATVEVVGEMLDEAIQLAKALEKNNPGWVYISPFDDPLIWEGHTSLVKELKETLSAKPGAIVLSVGGGGLLCGVVQGLREVGWEDVPIIAMETFGAHSFHAAVKEGKLVTLPKITSVAKALGVNTVGAQTLKLFYEHPIFSEVISDQEAVTAIEKFVDDEKILVEPACGAALAAVYSGVVCRLQAEARLQTPLASLVVIVCGGSNISLAQLQALKAQLGLNELLK”, the “soluble on expression in E. coli” value is “soluble”.
The same measure for “MAHHHHHHMAATKSAVSAAKRKAAKKVSRKSPEYTTLRKSCAPGAIAIILAGRFRGRRAVILKQLPHNGPLVVSGPMKYNGVPIRRIDSRYVIATSTTVDISSVDTAPITAEVFQRPKAEKPTKSEGDFMGDKQKAKAEKAAKKTSKAGKKTLVSDARAQLQKKIDAALIAAIKKDAQGKEKAGYLRSVFTVKPGDAPHRWNW”: “not soluble”; for “MAHHHHHHMRILHKLGKNVFQTARRSFSLVTKQAHDFTAQGLNKNNEIINVQLSSYIGKKYCCLLFYPLNYTFVCPTEIIEFNKHVKSFEEKNVELLGISVDSVYSHLAWKNMPIEKGGIGNVNFTLVSDLNKEISKMYNVLYENSFALRGLFIIDLQGKVRHQTVNDLPLGRSVDEVLRTIDSIIHVDKTGDVCPINWKKGAKSFQPTNDSLLNYLNTEVKKE”: “soluble”; for “MSLVKIKEVAMNIKINEIKMTPPTAFTPGQVIEEQEVISPSMLALQELQETTGAALYETMEEIGMALSGKLRENYKFTDAEKLERRQQALLRLIKQIQEDNGATLRPLTEENSDPDLQNAYQIIALAMALTAGGLSKKKKRDLQSQLDTLTAEEGWELAVFSLLELGEVDTATLSSLKRFMQQAIDNDEMPLSQWFRRVADWPDRCERVRILLRAVAFELSICIEPSEQSRLAAALVRLRRLLLFLGLEKECQREEWICQLPPNTLLPLLLDIICERWLFSDWLLDRLTAIVSSSKMFNRLLQQLDAQFMLIPDNCFNDEDQREQILETLREVKINQVLFEGHHHHHH”: “soluble”.
Take “MGSDKIHHHHHHEDSNPNALSPGIFWKSEGDIMKGLTSVYGALQPNASWAIPFERYIVIDGYRSDEITHRDDVTSWMNISSFNVEPTNSVVKTEWTNLYKGINYANQCLTNIPTVPGDSESLNALKKQSIAEARFLRAYFYYRLYVNFGERVPIYKEALAGTDEEFYPPQANPGELVSLIETELKEVQSDLPESYEESEKGRVTRYTAAALLGKFYMFRKELSKAEVEFKKIIDKEGSLFGLMENWADNFDGMHKNNKESLFEIQFTGDRSGGQYEYNLFTVHLGPMAGLDAYEEAYPTDWMCQTLLADKTIDGKSSDRALHTLIFDDPECRPFYYKNGKSFKDYHKEGEIFWHKYVTYTEGMSDYWDYSFFNVSVIRYADVLLLYAECLNDKGETTEAINIINKVRARVNVPALPLTMSKAEVLKHLQDKERPCELALEGSRWYDLVRWGIVEETLKAHNKPFVENYVDTKHQLFPIPHSEFLLNPDWEQNPNYSK”: the “soluble on expression in E. coli” value is on record as “not soluble”.
For the sequence “MSRLATLTWTSYRRGYTEIVTSAGLEVVFEPGDEWNSHDREYQQARLEVEGRGESGDGTVRTRTQALLRWQFKIKDGTVKRLPEADFTREVLVAVRLAIKDYRSQSSELRQKYFGPGFAMGG”, the “soluble on expression in E. coli” value is “not soluble”.
“MNAVKIEKGVAQYIEHNLYYYFEYVRDIQRLKKDILFGRANYDENVGGGRGNLPSRPTERRTIELITHRRLERLEQIVHAIQTVYRSLSPEKQKAVQLKYWSGKSYTWEQVAREIGVSVRQLYRWRDQIIYDIAKLLGEVNSNS”: the “soluble on expression in E. coli” value was “not soluble”.
